This passage reports Kd results from patent US20240092930A1 (MABWELL SHANGHAI BIOSCIENCE, published 2024).

Test [1] addresses T1, recombinant human Trop-2-his protein (ACCESSION NO.: NP_002344.2, AA 1-274) (human, UniProt P09758 27-274).
T1 construct: range 27-274; also called recombinant human Trop-2 protein; recombinant human Trop-2 extracellular domain; not shown: his tag
T1 sequence (looked up): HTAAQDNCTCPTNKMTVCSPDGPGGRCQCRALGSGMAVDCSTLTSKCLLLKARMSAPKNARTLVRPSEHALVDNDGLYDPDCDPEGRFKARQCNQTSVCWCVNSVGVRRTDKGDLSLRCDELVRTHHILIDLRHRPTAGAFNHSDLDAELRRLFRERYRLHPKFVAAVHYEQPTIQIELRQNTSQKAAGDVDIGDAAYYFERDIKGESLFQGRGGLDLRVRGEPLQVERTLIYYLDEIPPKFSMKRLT
Nature of the test: BLI, antibody on AHC sensor, Trop-2-his 60 nM. The protocol: (§1) 5-6 days after cell transfection, culture supernatants were purified through ProA affinity chromatography column to obtain different humanized antibodies. Affinities of the obtained antibodies were determined by an assay including capturing Fc fragments of the antibodies with anti-human IgG Fc capture (AHC) biosensors using Octet QKe system instrument from Fortebio. For the assay, each of the humanized antibodies and control antibody Sacituzumab was diluted to 4 μg/ml in PBS, and was allowed to flow through the surface of an AHC biosensor (Cat.: 18-0015, PALL) for 120 s. Recombinant human Trop-2-his protein (ACCESSION NO.: NP_002344.2, AA 1-274) was used as a mobile phase, and its concentration was 60 nM. The binding time was 100 s and the dissociation time was 300 s. When the assay was finished, data from which the response values of blank control had been deducted were fitted to a 1:1 Langmuir binding model using software, and then kinetic constants for antigen-antibody binding were calculated.
Affinities of the antibodies obtained from the combinations of mutants of murine antibody 23-12, chimeric antibody ch4-3 and control antibody Sacituzumab to recombinant human Trop-2-his protein were determined by ForteBio (Table 8).
In general terms: Biolayer interferometry detects binding as a change in optical thickness at a sensor tip.

The target in test [2] is T1, recombinant human Trop-2-his protein …. Nature of the test: BLI, antibody on AHC sensor, Trop-2-his 60 nM. The protocol: as §1
Affinities of the antibodies obtained from the combinations of mutants of murine antibody 23-12, chimeric antibody ch23-12 and control antibody Sacituzumab to recombinant human Trop-2-his protein were determined by ForteBijo (Table 5).
The source holds these as a separate data set.

Residue numbers refer to the chain shown, from its start. Where two headings read alike, the source gives them in different places.

B1: h4-3-2 (antibody, human IgG1, kappa, V domains shown)
VH: EVQLVQSGPEVKKPGASVKVSCKASGFTFTDYVIGWVRQAPGQGLEWIGEIYLGSGTIYYAEKFKGRVTMTADTSTSTAYMELSSLRSEDTAVYYCARGSIFPFDYWGQGTLVTVSS
VL: DIQLTQSPSSLSASVGDRVTITCSASSSVSYMYWYQQKPGKAPKLLIYDTSTLASGVPSRFSGSGSGTDFTLTISSLQPEDFATYYCQQWSSYPYTFGQGTKLEIKR
Usually Kd stands for the free concentration of one partner at which half of the binding sites on the other are occupied at equilibrium, for simple one-to-one binding. As for B1, the Kd in test [1] came out at 0.411 nM.

B2: h4-3-3 (antibody, human IgG1, kappa, V domains shown)
VH: B1 VH with A61T, E62Q
VL: B1 VL
As to B2, in test [1], the equilibrium dissociation constant (Kd) was 0.501 nM.

B3: h23-12-20 (antibody, human IgG1, kappa, V domains shown)
VH: QVQLVQSGAEVKKPGASVKVSCKASGYTFTSYWMHWVRQAPGQGLEWMGEITPSDNYTSYNQKFKGRVTITRDTSTSTAYMELSSLRSEDTAVYYCARGEGNYVSFDYWGQGTLVTVSS
VL: DIQMTQSPSSLSASVGDRVTITCRASQDISNYLNWYQQKPGKAPKLLIYYTSSLHSGVPSRFSGSGSGTDFTLTISSLQPEDFATYFCQQGYTLPPYTFGQGTKLEIKR
For B3, the Kd in test [2] is 1.46 nM.

B4: h23-12-31 (antibody, human IgG1, kappa, V domains shown)
VH: B3 VH with N56G, E100H
VL: B3 VL with S53R, H55Q
In the case of B4, the Kd in test [2] was determined as 63.9 nM.

B5: h23-12-43 (antibody, human IgG1, kappa, V domains shown)
VH: B3 VH with E100H
VL: B3 VL with S53R, T93S
In the case of B5, the Kd in test [2] was determined as 0.98 nM.

B6: h23-12-24 (antibody, human IgG1, kappa, V domains shown)
VH: B3 VH with N56G, E100H
VL: B3 VL with S53R, H55E
For the molecule B6, in test [2], the Kd amounted to 5.21 nM.

B7: h23-12-49 (antibody, human IgG1, kappa, V domains shown)
VH: B3 VH with E100Q
VL: B3 VL with S53R, T93S
Consider B7, for which the Kd in test [2] was found to be 2.99 nM.

B8: h23-12-47 (antibody, human IgG1, kappa, V domains shown)
VH: B3 VH with N61A, E100H
VL: B3 VL with S53R, T93S
Regarding B8, the Kd in test [2] came to 2.31 nM.

B9: h23-12-46 (antibody, human IgG1, kappa, V domains shown)
VH: B3 VH with T58G, E100H
VL: B3 VL with S53R, T93S
Consider B9, for which the Kd in test [2] was 0.312 nM.

B10: h23-12-21 (antibody, human IgG1, kappa, V domains shown)
VH: B3 VH with E100Q
VL: B3 VL
Take B10: in test [2], the Kd was found to be 22.8 nM.

B11: h23-12-40 (antibody, human IgG1, kappa, V domains shown)
VH: B3 VH with N61A, E100H
VL: B3 VL with S53R, G91Y
Take B11: the Kd in test [2] stood at 2.16 nM.

B12: h23-12-33 (antibody, human IgG1, kappa, V domains shown)
VH: B3 VH with N61A, E100H
VL: B3 VL with S53R, H55Q
As to B12, in test [2], the dissociation constant Kd was 8.91 nM.

B13: h23-12-39 (antibody, human IgG1, kappa, V domains shown)
VH: B3 VH with T58G, E100H
VL: B3 VL with S53R, G91Y
In the case of B13, the Kd in test [2] was found to be 0.492 nM.

B14: h23-12-45 (antibody, human IgG1, kappa, V domains shown)
VH: B3 VH with N56G, E100H
VL: B3 VL with S53R, T93S
Consider B14, for which the Kd in test [2] amounted to 4.09 nM.

B15: h23-12-29 (antibody, human IgG1, kappa, V domains shown)
VH: B3 VH with E100H
VL: B3 VL with S53R, H55Q
Turning to B15, the Kd in test [2] was 6.72 nM.

B16: h23-12-36 (antibody, human IgG1, kappa, V domains shown)
VH: B3 VH with E100H
VL: B3 VL with S53R, G91Y
Turning to B16, the Kd in test [2] is 8.81 nM.

B17: h23-12-37 (antibody, human IgG1, kappa, V domains shown)
VH: B3 VH with S54G, E100H
VL: B3 VL with S53R, G91Y
B17: the Kd in test [2] amounted to 0.893 nM.

B18: h23-12-44 (antibody, human IgG1, kappa, V domains shown)
VH: B3 VH with S54G, E100H
VL: B3 VL with S53R, T93S
Consider B18, for which the Kd in test [2] was found to be 0.717 nM.

B19: h23-12-34 (antibody, human IgG1, kappa, V domains shown)
VH: B3 VH
VL: B3 VL with S53R, H55Q
Turning to B19, the Kd in test [2] came to 5.57 nM.

B20: h23-12-42 (antibody, human IgG1, kappa, V domains shown)
VH: B3 VH with E100Q
VL: B3 VL with S53R, G91Y
As to B20, the Kd in test [2] was found to be 3.09 nM.

B21: h23-12-28 (antibody, human IgG1, kappa, V domains shown)
VH: B3 VH with E100Q
VL: B3 VL with S53R, H55E
On to B21, for which the Kd in test [2] was 4.13 nM.

B22: h23-12-26 (antibody, human IgG1, kappa, V domains shown)
VH: B3 VH with N61A, E100H
VL: B3 VL with S53R, H55E
For the molecule B22, the Kd in test [2] was found to be 5.43 nM.

B23: h23-12-22 (antibody, human IgG1, kappa, V domains shown)
VH: B3 VH with E100H
VL: B3 VL with S53R, H55E
With B23, in test [2], the Kd turned out to be 1.3 nM.

B24: h23-12-27 (antibody, human IgG1, kappa, V domains shown)
VH: B3 VH
VL: B3 VL with S53R, H55E
Consider B24, for which, in test [2], the Kd was determined as 0.496 nM.

B25: h23-12-23 (antibody, human IgG1, kappa, V domains shown)
VH: B3 VH with S54G, E100H
VL: B3 VL with S53R, H55E
On to B25, for which the Kd in test [2] was 0.77 nM.

B26: h23-12-32 (antibody, human IgG1, kappa, V domains shown)
VH: B3 VH with T58G, E100H
VL: B3 VL with S53R, H55Q
Take B26: in test [2], the equilibrium dissociation constant (Kd) was found to be 0.601 nM.

B27: h23-12-38 (antibody, human IgG1, kappa, V domains shown)
VH: B3 VH with N56G, E100H
VL: B3 VL with S53R, G91Y
For the molecule B27, the Kd in test [2] amounted to 7.86 nM.

B28: h23-12-48 (antibody, human IgG1, kappa, V domains shown)
VH: B3 VH
VL: B3 VL with S53R, T93S
With B28, the Kd in test [2] came to 0.405 nM.

B29: h23-12-35 (antibody, human IgG1, kappa, V domains shown)
VH: B3 VH with E100Q
VL: B3 VL with S53R, H55Q
As for B29, the Kd in test [2] amounted to 9.77 nM.

B30: h23-12-30 (antibody, human IgG1, kappa, V domains shown)
VH: B3 VH with S54G, E100H
VL: B3 VL with S53R, H55Q
As for B30, the Kd in test [2] stood at 9.76 nM.

B31: h23-12-41 (antibody, human IgG1, kappa, V domains shown)
VH: B3 VH
VL: B3 VL with S53R, G91Y
On to B31, for which, in test [2], the Kd was 0.782 nM.
